Source: US20250099622A1, “COMPOSITIONS AND METHODS FOR EXPRESSING THERAPEUTICS” (priority 2022, published 2025)

Tests used:
[1] = target: T1, Human NPR-B (Homo sapiens, UniProt P20594); assay: Biacore SPR kinetic affinity binding to immobilized NPR-B
T1 construct: purchased R&D system
T1 sequence (P20594 23-458 limits assumed): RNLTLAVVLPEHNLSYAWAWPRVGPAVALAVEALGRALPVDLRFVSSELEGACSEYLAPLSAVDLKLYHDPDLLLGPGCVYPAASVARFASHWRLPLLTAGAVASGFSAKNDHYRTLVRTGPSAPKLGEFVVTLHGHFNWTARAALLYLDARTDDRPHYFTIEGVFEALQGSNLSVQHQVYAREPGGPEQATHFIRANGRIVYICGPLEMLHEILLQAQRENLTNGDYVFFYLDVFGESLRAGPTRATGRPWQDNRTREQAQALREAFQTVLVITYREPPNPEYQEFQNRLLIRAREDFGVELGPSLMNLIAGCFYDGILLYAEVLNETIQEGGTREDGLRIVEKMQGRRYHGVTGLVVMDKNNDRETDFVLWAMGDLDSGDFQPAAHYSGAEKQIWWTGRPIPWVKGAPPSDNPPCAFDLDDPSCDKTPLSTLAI
Procedure: The biological function of these purified protein was assayed for their stimulation of production of cGMP, using NPR-B receptor positive cell line, NIH/3T3 and NPR-B negative cell line HEK293 cells. The determination of cGMP was assay by ELISA using commercial CNP as standard curves. […] Surface preparation. NBR-B was immobilized at different levels in three flow cells via standard amine coupling, leaving Fc 1 unmodified to serve as a reference. All surface plasmon resonance (SPR) analysis was performed on a BIAcore 3000 system using series CM5 sensor chips. Data processing and analysis were performed using BIAevaluation software. All sensorgrams were double referenced by subtracting the response on a reference flow cell and a blank sample. Human NPR-B (R&D system) was covalently attached to a CM5 chip via amine coupling. A surface density of 6600 RU was used for measurements with natriuretic peptides Sequential injections of CNP (0.5-8 nM) were performed at a flow rate of […] (300 s for each), followed by a dissociation time of 900 s. […] Kinetic parameters were calculated assuming a simple 1:1 (Langmuir) binding. […] All SPR analysis was performed on a BIAcore 3000 system using series CM5 sensor chips. Data processing and analysis were performed using BIAevaluation software. All sensorgrams were double referenced by subtracting the response on a reference flow cell and a blank sample. Human NPR-B (R&D system) was covalently attached to a CM5 chip via amine coupling. A surface density of 3100 RU was used for measurements with natriuretic peptides Sequential injections of AMI263 (FC4-CNP) (0.125-2 nM) were performed at a flow rate of […] (300 s for each), followed by a dissociation time of 900 s. […] Kinetic parameters were calculated assuming a simple 1:1 (Langmuir) binding. […] All SPR analysis was performed on a BIAcore 3000 system using series CM5 sensor chips. Data processing and analysis were performed using BIAevaluation software. All sensorgrams were double referenced by subtracting the response on a reference flow cell and a blank sample. Human NPR-B (R&D system) was covalently attached to a CM5 chip via amine coupling. […] Kinetic parameters were calculated assuming a simple 1:1 (Langmuir) binding. […] All SPR analysis was performed on a BIAcore 3000 system using series CM5 sensor chips. Data processing and analysis were performed using BIAevaluation software. All sensorgrams were double referenced by subtracting the response on a reference flow cell and a blank sample. Human NPR-B (R&D system) was covalently attached to a CM5 chip via amine coupling. A surface density of 3100 RU was used for measurements with natriuretic peptides Sequential injections of AMI263 (FC4-CNP) (0.5-300 nM) were performed at a flow rate of […] (300 s for each), followed by a dissociation time of 900 s. […] Kinetic parameters were calculated assuming a simple 1:1 (Langmuir) binding. […] All SPR analysis was performed on a BIAcore 3000 system using series CM5 sensor chips. Data processing and analysis were performed using BIAevaluation software. All sensorgrams were double referenced by subtracting the response on a reference flow cell and a blank sample. Human NPR-B (R&D system) was covalently attached to a CM5 chip via amine coupling.

[2] = system: HEK293 cells; assay: CNP-Fc ELISA of supernatant of AAV-transduced HEK293 cells; assay type: cell-based, Human; conditions: CNP-Fc in HEK293 supernatant 5 days after transduction with 100,000 MOI of AAV2 N54 vector
Procedure: C-type natriuretic peptide (CNP) has two isoforms, CNP-22 and CNP-53. Example 2 illustrates that CNP-36 fused with Fe increased the half-life of the CNP and also facilitated in purification and ELISA detection when compared to native (unfused) CNP. Transduction and CNP-Fc expression experiments were performed with three AAV vectors (AMI061, AMI087 and AMI0488). FIG. 1A is the pictorial depiction of the three vectors. FIGS. 1B-F illustrate additional vectors that can encode the CNP or the CNP fusion protein. Enzyme-linked immunoassay (ELISA) was developed for quantifying CNP-Fc fusion proteins in cell culture supernatants. The ELISA assay was used to quantify CNP-Fc expressed in HEK293 cells, human chondrocytes (HCH) cells, and human skeletal muscle cells (hSkMC) upon transduction with one of the three AAV constructs described herein.
Buffer and substrate. Coating buffer: 3.7 g sodium bicarbonate, 0.64 g sodium carbonate in 1 L of Milli Q water, pH 9.6. Stored at RT; Blocking buffer: Commercial Casein blocking buffer in PBS+ added 0.1% Tween20. Stored at 4° C.; Standard diluent: same as blocking buffer; Wash buffer: 1×PBS with 0.1% tween 20 (30 days expiry from date of manufacture); Coating Antibody (Ab): Human CNP Antibody (monoclonal), coating concentration was 2 μg/mL; Detection Ab: Goat pAb anti-human Fc. Diluted up to 1:20,000 final dilution in well. Stored at 4° C.; HRP: Streptavidin-HRP stock of 1 mg/mL, diluted up to 1:10,000. Stored at 4° C.; Substrate: TMB. Stored at 4° C.; and Stop solution: 2 N HCl. Stored at ambient temperature.
• 1. Coat 96-well plate with 2 μg/mL anti-CNP antibody final concentration per well in the coating buffer with a 50 μL volume and cover the plate with sealing cover. Put the plate at 4° C. overnight. • 2. Next day, remove the plate, wash thrice with wash buffer and tap the plate on the paper towel to remove excess solution. • 3. Add 300 μL of blocking buffer to each well using multichannel pipette. […] Add 50 μL stop solution and read plate at 450 nm with 600 as reference within 15 min. […]

[3] = system: NIH3T3 cells (cGMP secreted); assay: EC50 for CNP-Fc constructs, cGMP ELISA of NIH3T3 supernatant; assay type: cell-based; conditions: NIH3T3, 30 minutes, 1.8 mM IBMX, cGMP secreted by the cells; FIG. 25B
Procedure: EC50 for CNP-Fc described herein were measured by ELISA. 2.5E+05 NIH3T3 cells/well were plated. […] After 30 minutes, supernatant was collected for cGMP determined via ELISA. FIG. 25A illustrates a standard curve of cGMP.

[4] = target: T2, NPR-B on NIH/3T3 cells (NPR-B receptor positive cell line) (UniProt Q6VVW5 17-1047, limits assumed); assay: cell-based or functional assay
T2 sequence (looked up): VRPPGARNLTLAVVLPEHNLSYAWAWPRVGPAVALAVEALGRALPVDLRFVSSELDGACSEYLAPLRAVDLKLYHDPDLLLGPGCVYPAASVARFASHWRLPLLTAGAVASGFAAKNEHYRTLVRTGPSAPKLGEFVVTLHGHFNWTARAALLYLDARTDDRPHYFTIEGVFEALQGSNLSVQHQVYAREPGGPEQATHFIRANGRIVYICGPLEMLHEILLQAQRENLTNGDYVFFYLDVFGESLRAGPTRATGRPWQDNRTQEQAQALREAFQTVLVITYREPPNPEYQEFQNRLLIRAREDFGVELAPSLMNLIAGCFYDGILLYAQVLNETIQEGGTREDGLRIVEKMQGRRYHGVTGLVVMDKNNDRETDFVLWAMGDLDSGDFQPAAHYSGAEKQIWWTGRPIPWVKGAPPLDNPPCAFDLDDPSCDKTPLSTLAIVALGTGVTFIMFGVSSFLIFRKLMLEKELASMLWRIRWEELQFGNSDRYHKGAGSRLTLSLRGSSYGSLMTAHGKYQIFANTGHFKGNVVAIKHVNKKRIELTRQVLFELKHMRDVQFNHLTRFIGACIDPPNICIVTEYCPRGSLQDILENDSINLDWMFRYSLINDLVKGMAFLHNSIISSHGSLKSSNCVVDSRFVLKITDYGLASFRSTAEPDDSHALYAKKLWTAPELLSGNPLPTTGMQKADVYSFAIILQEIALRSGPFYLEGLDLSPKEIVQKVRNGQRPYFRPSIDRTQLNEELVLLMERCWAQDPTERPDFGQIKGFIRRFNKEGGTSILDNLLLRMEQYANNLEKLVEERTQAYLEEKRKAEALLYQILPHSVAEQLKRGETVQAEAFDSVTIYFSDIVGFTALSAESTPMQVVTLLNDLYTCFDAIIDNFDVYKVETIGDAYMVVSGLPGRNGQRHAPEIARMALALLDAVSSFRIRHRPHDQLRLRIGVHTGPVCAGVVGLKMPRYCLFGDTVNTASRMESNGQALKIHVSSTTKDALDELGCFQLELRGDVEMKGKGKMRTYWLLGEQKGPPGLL

Molecule: AMI087: purified CNP-Fc fusion protein CNP36-(G4S)4-Fc1, SEQ ID NO: 132
- ka ([1]; (FIG. 7C-7I)): 3.65E3
- kd ([1]; (FIG. 7C-7I)): 1.53E-3
- ka ([1]; Table 32 summary of affinity): 3.65E+03
- kd ([1]; Table 32 summary of affinity): 1.53E−03
- Concentration [2]: 33 µg/mL

Molecule: AMI269: fusion protein Fc4-(G4S)4-CNP22, SEQ ID NO: 136
- EC50 values (rank order) [3]: CNP-22 ≡Fc4-CNP36>Aflibercept-Fc4-CNP36>Fc1-CNP36>>Fc4-CNP22

Molecule: SLRRSSCFGGRMDRIGAQSGLGCNSFRY (peptide, UniProt P01160 124-151, looked up) [ANP]
- EC50 (cGMP production, drawn table, row ANP) [4]: 112 nM
- EC50 (read off the curve), cGMP production [4]: ~100 nM
